Data as given in the Human Domainome abundance scans (Beltran et al. 2025).
± gives the uncertainty stated by the source.

B1: Chromodomain-helicase-DNA-binding protein 3, residues 374 to 426; numbered along this chain, Q12873 (parent)
chain: YETDHQDYCEVCQQGGEIILCDTCPRAYHLVCLDPELDRAPEGKWSCPHCEKE

Variants of: B1
Experiment: abundance fitness (aPCA) (normalised: wild type 0, dead -1); higher = more abundant; growth selection in yeast, the domain comes from the species named
Details: Homo sapiens

Abundance fitness of substitutions, site by site:
L37: T -0.275 ± 0.14, P -0.154 ± 0.12, R -0.094 ± 0.11
D34: I -0.383 ± 0.14, K -0.079 ± 0.12, A -0.198 ± 0.082, E -0.011 ± 0.11, R -0.197 ± 0.093, M -0.494 ± 0.13, H -0.385 ± 0.14, N -0.189 ± 0.11, V -0.1 ± 0.08, L -0.083 ± 0.092, G -0.156 ± 0.099, P -0.089 ± 0.11, S -0.127 ± 0.091, W -0.747 ± 0.22, Q -0.112 ± 0.15, Y -0.327 ± 0.13, C -0.316 ± 0.15, F -0.287 ± 0.12
P35: K -0.183 ± 0.15, W -0.167 ± 0.16, G -0.044 ± 0.1, C -0.117 ± 0.17, Y 0.015 ± 0.17, H -0.052 ± 0.31, M -0.095 ± 0.15, E -0.306 ± 0.11, V 0.029 ± 0.088, L -0.11 ± 0.098, T -0.013 ± 0.14, S -0.068 ± 0.11, N -0.196 ± 0.24, I -0.3 ± 0.23, D 0.039 ± 0.14
L33: G 0.07 ± 0.1, P -0.427 ± 0.12, T -0.208 ± 0.1, F -0.449 ± 0.14, R -0.39 ± 0.091, A -0.12 ± 0.12, K -0.663 ± 0.15, Y -0.133 ± 0.15, D -0.755 ± 0.29, V -0.182 ± 0.13, E -0.365 ± 0.18, M -0.148 ± 0.13, H -0.146 ± 0.15, S -0.286 ± 0.11, N -0.326 ± 0.14, C 0.072 ± 0.12, I -0.214 ± 0.14
L30: H -0.059 ± 0.13, I -0.27 ± 0.14, T -0.067 ± 0.11, N -0.197 ± 0.18, E -0.155 ± 0.14, M 0.067 ± 0.088, F -0.038 ± 0.15, Q -0.189 ± 0.14, S -0.202 ± 0.097, V -0.014 ± 0.1, K -0.121 ± 0.14, P 0.021 ± 0.11, Y 0.098 ± 0.13, G -0.014 ± 0.13
R39: I 0.149 ± 0.17, A 0.068 ± 0.14, Y -0.027 ± 0.19, G -0.123 ± 0.13, M -0.009 ± 0.18, Q -0.182 ± 0.26, D -0.138 ± 0.17, N 0.034 ± 0.21, W -0.2 ± 0.19, C -0.221 ± 0.17, P -0.084 ± 0.24, V -0.248 ± 0.11, L -0.156 ± 0.14, F -0.254 ± 0.14, T -0.037 ± 0.17, H -0.248 ± 0.25, S 0.01 ± 0.12
